# The supplement of paper PMC7125110
# ± gives the standard error. Variants at the floor of the assay were thinned out.
# B1: glmS ribozyme (parent)
# chain: AUAAAAGCGCCAGAACUACAGAAAUGUAGUUGACGAGGAGGAGGUUUAUCGAAUUUUCGGCGGAUGCCUCCAAA
# Variants of: B1
# Test: self-cleavage kobs at 2500 uM GlcN6P; higher = faster cleavage; RNA array
# Conditions: with glucosamine-6-phosphate
# Outline: (§1)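 Tracking of barcoded ribozyme variants used a hybridised Cy3 probe at 37 °C, after in situ transcription by E. coli RNA polymerase on sequenced MiSeq chips. The flowed solution held 40 μM to 10 mM glucosamine-6-phosphate in HEPES/KCl/Mg(OAc)2 buffer, and imaging ran over ~14 h. kobs was taken from exponential decay fits of normalised per-tile medians, and kcat and KM from weighted Michaelis–Menten fits.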
row,Variant,self-cleavage kobs at 2500 uM GlcN6P
1,A6G A12C G37C U45A C70U,< 1e-05 s⁻¹
2,A12G A53C U56G,5.07e-05 ± 1.5e-05 s⁻¹
3,U31C U56C C70G,< 1e-05 s⁻¹
4,A12U G13C U56G C67U,< 1e-05 s⁻¹
5,C16A G32U U55G,0.000117 ± 3.5e-05 s⁻¹
6,G35A C50G U54G A64C,7.23e-05 ± 2.7e-05 s⁻¹
7,G41C G59U C67U,< 1e-05 s⁻¹
8,G41C G43C U47A A64G,< 1e-05 s⁻¹
9,C11U A15C G63U U65A C67A,< 1e-05 s⁻¹
10,G38U G41U G59C U65A,< 1e-05 s⁻¹
11,C16U G29U A53U,0.00254 ± 0.00062 s⁻¹
12,U56C A64U U65C,< 1e-05 s⁻¹
13,A12G A33G G44C,< 1e-05 s⁻¹
14,U56A U57C C67A,4.71e-05 ± 2e-05 s⁻¹
15,C8G A33U U46A U69G,< 1e-05 s⁻¹
16,A12C A15U G41A A53C C58U U65A,< 1e-05 s⁻¹
17,U46G G51U C67A,< 1e-05 s⁻¹
18,A15U G44U C71U,< 1e-05 s⁻¹
19,A15U C16U C58G C70U,7.87e-05 ± 2.1e-05 s⁻¹
20,A14C A15C G38U,< 1e-05 s⁻¹
21,G44U U46G C70U C71G,< 1e-05 s⁻¹
22,G32C G38U C58G,< 1e-05 s⁻¹
23,C16A G29C U45C,0.000155 ± 3.5e-05 s⁻¹
24,C8A G59A C70U,< 1e-05 s⁻¹

row,Variant,self-cleavage kobs at 2500 uM GlcN6P
1,G41A A53G U55A,0.000666 ± 0.00022 s⁻¹
2,G35U A42U U49A A53U,< 1e-05 s⁻¹
3,A42G A48U U56A,0.000146 ± 4.2e-05 s⁻¹
4,G35C U46C A52C U54C,< 1e-05 s⁻¹
5,C10U U47G A52U U69A,7.36e-05 ± 3.5e-05 s⁻¹
6,C11G A15U A42U U46C,< 1e-05 s⁻¹
7,C11A G37C G38U,< 1e-05 s⁻¹
8,C11A A14C C70U,7.46e-05 ± 2.7e-05 s⁻¹
9,G38A G51C A52U G62A,< 1e-05 s⁻¹
10,G7U U45A C58A,< 1e-05 s⁻¹
11,A33U C34A G38A C50A C70G,0.00153 ± 0.0004 s⁻¹
12,A33G A36G G38U C61U C71A,< 1e-05 s⁻¹
13,G41C A42G C70A,6.34e-05 ± 1.5e-05 s⁻¹
14,A14U C50A C71A,4.46e-05 ± 2.1e-05 s⁻¹
15,C8G A64G U69A C71U,< 1e-05 s⁻¹
16,G41C U45C C50U,< 1e-05 s⁻¹
17,U31G U45C,0.000406 ± 0.00014 s⁻¹
18,G37U G44U C70G,< 1e-05 s⁻¹
19,A39G C50U U55A C70U,4.43e-05 ± 1.7e-05 s⁻¹
20,G38A C50G A52G,4.75e-05 ± 1.6e-05 s⁻¹
21,G32A G51U,< 1e-05 s⁻¹
22,G40A U55A U56C,0.000458 ± 0.00017 s⁻¹
23,C11A A14U C71U,6.69e-05 ± 2.1e-05 s⁻¹
24,C8G C11A G13U A33U A36C U55C C58G C71G,< 1e-05 s⁻¹

row,Variant,self-cleavage kobs at 2500 uM GlcN6P
1,G35A U69C,< 1e-05 s⁻¹
2,C16G G35C A48G U57C G62A C67A U69A,< 1e-05 s⁻¹
3,A12U G40A A53C,0.00179 ± 0.00063 s⁻¹
4,G9C C11G C71U,< 1e-05 s⁻¹
5,A39G U45A A64U,0.000381 ± 0.00012 s⁻¹
6,C34A A39C G66C C71A,< 1e-05 s⁻¹
7,U46G U54C C58G U65A,< 1e-05 s⁻¹
8,G41C A48C A64G,< 1e-05 s⁻¹
9,G37U G38C U55C,< 1e-05 s⁻¹
10,A12U G35U A53U C61G U65C,< 1e-05 s⁻¹
11,G43U U47G G59C,< 1e-05 s⁻¹
12,A39U G59A A64C,< 1e-05 s⁻¹
13,G37A G43C C58G,< 1e-05 s⁻¹
14,A33G C34U U49A,< 1e-05 s⁻¹
15,A15U U45A U65G,0.00134 ± 0.00059 s⁻¹
16,A14G C34A U55G C70A,< 1e-05 s⁻¹
17,G37C G60C C68G,< 1e-05 s⁻¹
18,G7C A53G C70A,< 1e-05 s⁻¹
19,G7C C10U G13C G66U,< 1e-05 s⁻¹
20,C11G U49C C70U,< 1e-05 s⁻¹
21,A14G A52U C67U,0.00014 ± 3.1e-05 s⁻¹
22,U30G U56G C71A,0.000262 ± 6.3e-05 s⁻¹
23,A14C C34G A48C,< 1e-05 s⁻¹
24,A48U G51A U57A,< 1e-05 s⁻¹

row,Variant,self-cleavage kobs at 2500 uM GlcN6P
1,G29U U57A C68G,8.07e-05 ± 2.8e-05 s⁻¹
2,G38A U56G,< 1e-05 s⁻¹
3,G40C G44A U54A C61A A64G,< 1e-05 s⁻¹
4,A14C C58A C67A C68G,4.77e-05 ± 1.6e-05 s⁻¹
5,A15C G32U C34U,< 1e-05 s⁻¹
6,G32U G40C A42G,7.39e-05 ± 1.8e-05 s⁻¹
7,G13U G40A A53G,0.000153 ± 3.6e-05 s⁻¹
8,U57A C58A C70G,0.000143 ± 3.9e-05 s⁻¹
9,A12U A14U G29C U49A,< 1e-05 s⁻¹
10,A14G U31C G40U U55A,0.0012 ± 0.00032 s⁻¹
11,C10A U47G G59U C68U,5.63e-05 ± 1.7e-05 s⁻¹
12,A12U G44C A53G U56A,7.9e-05 ± 2.1e-05 s⁻¹
13,G9A G37C G38C,< 1e-05 s⁻¹
14,A6U G35C U56A G60U A64G,< 1e-05 s⁻¹
15,G7U U49A U65G,< 1e-05 s⁻¹
16,U30A U56A G60U,< 1e-05 s⁻¹
17,C16U G35U G62U G63U,< 1e-05 s⁻¹
18,A33C U49C C70U,< 1e-05 s⁻¹
19,C11U U54C C67A,0.00025 ± 8e-05 s⁻¹
20,A36U U55C C58G,< 1e-05 s⁻¹
21,G32U G43A A64G,< 1e-05 s⁻¹
22,G29C G43U G62C,< 1e-05 s⁻¹
23,U30C G37C G38C C61U,< 1e-05 s⁻¹
24,C11G G37C A39G,< 1e-05 s⁻¹

row,Variant,self-cleavage kobs at 2500 uM GlcN6P
1,U31G A33C G38C A39G G62A,< 1e-05 s⁻¹
2,C11A C16U C71U,0.000223 ± 5.3e-05 s⁻¹
3,G9C G29A G32A,< 1e-05 s⁻¹
4,A12C G13U U30C G60A G66A,< 1e-05 s⁻¹
5,G7U U47G A52U,< 1e-05 s⁻¹
6,G40U A48U A52U,< 1e-05 s⁻¹
7,C11G C61A G62C,< 1e-05 s⁻¹
8,G9A G35U U47A C70U,< 1e-05 s⁻¹
9,G13U U57G U65C,< 1e-05 s⁻¹
10,A36U A48U G60U C68A,< 1e-05 s⁻¹
11,A15G U31G U47G,0.000803 ± 0.00015 s⁻¹
12,A39C G44C C67A,0.000176 ± 4.5e-05 s⁻¹
13,U30A A36U C71A,< 1e-05 s⁻¹
14,A33C U56C C71A,< 1e-05 s⁻¹
15,C11U U49C U56G,< 1e-05 s⁻¹
16,U31C C34A G41U U57G G60C,< 1e-05 s⁻¹
17,C16G G29U C34G,< 1e-05 s⁻¹
18,A6G G29A G60A,< 1e-05 s⁻¹
19,A42U A53G C61G,< 1e-05 s⁻¹
20,A14G G44C,0.000239 ± 4.2e-05 s⁻¹
21,G7A A64C C67G U69G,< 1e-05 s⁻¹
22,U47G A48U U56G C68A,0.000324 ± 0.00012 s⁻¹
23,G7C G29U G35U,< 1e-05 s⁻¹
24,U31G G38C U46C U65G,< 1e-05 s⁻¹

row,Variant,self-cleavage kobs at 2500 uM GlcN6P
1,C11G G43U C58A,< 1e-05 s⁻¹
2,G37U A53C,< 1e-05 s⁻¹
3,A14C U46G C70A,0.000308 ± 9.2e-05 s⁻¹
4,G7A A12C A15U G41U,< 1e-05 s⁻¹
5,A36G G41U G60A,< 1e-05 s⁻¹
6,C11U A12G A15U,0.000175 ± 4.8e-05 s⁻¹
7,A15G U55A G66C,0.000727 ± 0.00013 s⁻¹
8,C10G C11A A33C A36U A52U A53C U56A G62U,< 1e-05 s⁻¹
9,G32U U55G C70U,0.000141 ± 5e-05 s⁻¹
10,A15G U30A G44U U45A,0.000178 ± 5.5e-05 s⁻¹
11,C10A G37A A53C,< 1e-05 s⁻¹
12,G9A C50G U55A C67G,4.95e-05 ± 1.9e-05 s⁻¹
13,G29A G60U A64G,< 1e-05 s⁻¹
14,C8U G51U U57C,< 1e-05 s⁻¹
15,G32A U45G G51C,< 1e-05 s⁻¹
16,G13U G40A A42C U65G,< 1e-05 s⁻¹
17,C34G G35C G51C U57G C58U,< 1e-05 s⁻¹
18,A12G U30A U69C,5.49e-05 ± 1.7e-05 s⁻¹
19,C34A A42C A52U C71A,< 1e-05 s⁻¹
20,A48U U56A,9.99e-05 ± 3.4e-05 s⁻¹
21,G7A G38U G41U,< 1e-05 s⁻¹

# Variants of: B1
# Test: self-cleavage kobs at 10000 uM GlcN6P; higher = faster cleavage; RNA array
# Conditions: with glucosamine-6-phosphate
# Outline: as §1
row,Variant,self-cleavage kobs at 10000 uM GlcN6P
1,C16A G32U U55G,0.000315 ± 4.6e-05 s⁻¹
2,C16U G29U A53U,0.00591 ± 0.00094 s⁻¹
3,U46G G51U C67A,< 1e-05 s⁻¹
4,A15U G44U C71U,< 1e-05 s⁻¹
5,C11A A14U C71U,4.6e-05 ± 1.3e-05 s⁻¹
6,G35A U69C,< 1e-05 s⁻¹
7,C16G G35C A48G U57C G62A C67A U69A,< 1e-05 s⁻¹
8,A12U G40A A53C,0.00159 ± 0.00056 s⁻¹
9,A39G U45A A64U,0.000499 ± 0.00011 s⁻¹
10,G40C U65C,0.000172 ± 3.4e-05 s⁻¹
11,A14C C34G A48C,< 1e-05 s⁻¹
12,G13U U57G U65C,< 1e-05 s⁻¹
13,U30A A36U C71A,< 1e-05 s⁻¹
14,A14G G44C,0.000423 ± 7.7e-05 s⁻¹
15,U47G A48U U56G C68A,4.62e-05 ± 1.6e-05 s⁻¹
16,G37U A53C,< 1e-05 s⁻¹
17,C11U A12G A15U,0.000193 ± 4.2e-05 s⁻¹

# Variants of: B1
# Test: self-cleavage kobs at 640 uM GlcN6P; higher = faster cleavage; RNA array
# Conditions: with glucosamine-6-phosphate
# Outline: as §1
row,Variant,self-cleavage kobs at 640 uM GlcN6P
1,C8G A33U U46A U69G,< 1e-05 s⁻¹
2,C11A U56A C70U C71A,0.000256 ± 7.9e-05 s⁻¹
3,G35C G59U C61A,< 1e-05 s⁻¹
4,A14G U30A A36U C58U G66U,< 1e-05 s⁻¹
5,G13C A15C A52U G66C,< 1e-05 s⁻¹
6,G41C U45C C50U,< 1e-05 s⁻¹
7,C10U A52U C67A C68A U69G,8.14e-05 ± 3.2e-05 s⁻¹
8,A39G U49A C68U,< 1e-05 s⁻¹
9,C16G G35C A48G U57C G62A C67A U69A,< 1e-05 s⁻¹
10,G40C U65C,4.51e-05 ± 1.9e-05 s⁻¹
11,A14G A52U C67U,7.45e-05 ± 1.3e-05 s⁻¹
12,A14C C58A C67A C68G,5.61e-05 ± 2.2e-05 s⁻¹
13,C50G U57A A64U,0.000127 ± 5.8e-05 s⁻¹
14,G43A G44A C68U,0.000159 ± 6.2e-05 s⁻¹
15,C11G G37C A39G,< 1e-05 s⁻¹
16,G9C G29A G32A,< 1e-05 s⁻¹
17,C16U A39G U55C,0.0143 ± 0.0027 s⁻¹
18,G9A G35U U47A C70U,< 1e-05 s⁻¹
19,A12U G32C G35C A42U,< 1e-05 s⁻¹
20,A36U A48U G60U C68A,< 1e-05 s⁻¹
21,G7C A12U A15C,< 1e-05 s⁻¹
22,A12C U30G U45C C50A A52U,< 1e-05 s⁻¹
